Test results as given in US20110263454A1, “Methods of Identifying Functional Characteristics of Promoters, Transcription Modifying Proteins and Transcription Modulating Agents” (Salk Institute for Biological Studies, priority 2008, published 2011).

B1: CAR: Constitutive Androstane Receptor (NR1I3), cDNA driver (protein, UniProt Q14994 1-352, looked up)
Nuclear receptor subfamily 1 …: MASREDELRNCVVCGDQATGYHFNALTCEGCKGFFRRTVSKSIGPTCPFAGSCEVSKTQRRHCPACRLQKCLDAGMRKDMILSAEALALRRAKQAQRRAQQTPVQLSKEQEELIRTLLGAHTRHMGTMFEQFVQFRPPAHLFIHHQPLPTLAPVLPLVTHFADINTFMVLQVIKFTKDLPVFRSLPIEDQISLLKGAAVEICHIVLNTTFCLQTQNFLCGPLRYTIEDGARVSPTVGFQVEFLELLFHFHGTLRKLQLQEPEYVLLAAMALFSPDRPGVTQRDEIDQLQEEMALTLQSYIKGQQRRPRDRFLYAKLLGLLAELRSINEAYGYQIQHIQGLSAMMPLLQEICS
B2: RARb: Retinoic acid receptor β (NR1B2), nuclear hormone receptor cDNA driver (protein, UniProt P10826 1-455, looked up)
Retinoic acid receptor beta: MTTSGHACPVPAVNGHMTHYPATPYPLLFPPVIGGLSLPPLHGLHGHPPPSGCSTPSPATIETQSTSSEELVPSPPSPLPPPRVYKPCFVCQDKSSGYHYGVSACEGCKGFFRRSIQKNMIYTCHRDKNCVINKVTRNRCQYCRLQKCFEVGMSKESVRNDRNKKKKETSKQECTESYEMTAELDDLTEKIRKAHQETFPSLCQLGKYTTNSSADHRVRLDLGLWDKFSELATKCIIKIVEFAKRLPGFTGLTIADQITLLKAACLDILILRICTRYTPEQDTMTFSDGLTLNRTQMHNAGFGPLTDLVFTFANQLLPLEMDDTETGLLSAICLICGDRQDLEEPTKVDKLQEPLLEALKIYIRKRRPSKPHMFPKILMKITDLRSISAKGAERVITLKMEIPGSMPPLIQEMLENSEGHEPLTPSSSGNTAEHSPSISPSSVENSGVSQSPLVQ
B3: FXR: Farnesoid X Receptor (NR1H4), cDNA driver (protein, UniProt Q96RI1 1-486, looked up)
Bile acid receptor: MVMQFQGLENPIQISPHCSCTPSGFFMEMMSMKPAKGVLTEQVAGPLGQNLEVEPYSQYSNVQFPQVQPQISSSSYYSNLGFYPQQPEEWYSPGIYELRRMPAETLYQGETEVAEMPVTKKPRMGASAGRIKGDELCVVCGDRASGYHYNALTCEGCKGFFRRSITKNAVYKCKNGGNCVMDMYMRRKCQECRLRKCKEMGMLAECMYTGLLTEIQCKSKRLRKNVKQHADQTVNEDSEGRDLRQVTSTTKSCREKTELTPDQQTLLHFIMDSYNKQRMPQEITNKILKEEFSAEENFLILTEMATNHVQVLVEFTKKLPGFQTLDHEDQIALLKGSAVEAMFLRSAEIFNKKLPSGHSDLLEERIRNSGISDEYITPMFSFYKSIGELKMTQEEYALLTAIVILSPDRQYIKDREAVEKLQEPLLDVLQKLCKIHQPENPQHFACLLGRLTELRTFNHHHAEMLMSWRVNDHKFTPLLCEIWDVQ
B4: RARg: Retinoic acid receptor γ (NR1B3), nuclear hormone receptor cDNA driver (protein, UniProt P13631 1-454, looked up)
Retinoic acid receptor gamma: MATNKERLFAAGALGPGSGYPGAGFPFAFPGALRGSPPFEMLSPSFRGLGQPDLPKEMASLSVETQSTSSEEMVPSSPSPPPPPRVYKPCFVCNDKSSGYHYGVSSCEGCKGFFRRSIQKNMVYTCHRDKNCIINKVTRNRCQYCRLQKCFEVGMSKEAVRNDRNKKKKEVKEEGSPDSYELSPQLEELITKVSKAHQETFPSLCQLGKYTTNSSADHRVQLDLGLWDKFSELATKCIIKIVEFAKRLPGFTGLSIADQITLLKAACLDILMLRICTRYTPEQDTMTFSDGLTLNRTQMHNAGFGPLTDLVFAFAGQLLPLEMDDTETGLLSAICLICGDRMDLEEPEKVDKLQEPLLEALRLYARRRRPSQPYMFPRMLMKITDLRGISTKGAERAITLKMEIPGPMPPLIREMLENPEMFEDDSSQPGPHPNASSEDEVPGGQGKGGLKSPA
B5: PPARd: Peroxisome proliferator activated receptor δ (NR1C2), cDNA driver (protein, UniProt Q03181 1-441, looked up)
Peroxisome …: MEQPQEEAPEVREEEEKEEVAEAEGAPELNGGPQHALPSSSYTDLSRSSSPPSLLDQLQMGCDGASCGSLNMECRVCGDKASGFHYGVHACEGCKGFFRRTIRMKLEYEKCERSCKIQKKNRNKCQYCRFQKCLALGMSHNAIRFGRMPEAEKRKLVAGLTANEGSQYNPQVADLKAFSKHIYNAYLKNFNMTKKKARSILTGKASHTAPFVIHDIETLWQAEKGLVWKQLVNGLPPYKEISVHVFYRCQCTTVETVRELTEFAKSIPSFSSLFLNDQVTLLKYGVHEAIFAMLASIVNKDGLLVANGSGFVTREFLRSLRKPFSDIIEPKFEFAVKFNALELDDSDLALFIAAIILCGDRPGLMNVPRVEAIQDTILRALEFHLQANHPDAQYLFPKLLQKMADLRQLVTEHAQMMQRIKKTETETSLHPLLQEIYKDMY
B6: PXR: Pregnane X Receptor (NR1I2), cDNA driver (protein, UniProt O75469 1-434, looked up)
Nuclear receptor subfamily 1 …: MEVRPKESWNHADFVHCEDTESVPGKPSVNADEEVGGPQICRVCGDKATGYHFNVMTCEGCKGFFRRAMKRNARLRCPFRKGACEITRKTRRQCQACRLRKCLESGMKKEMIMSDEAVEERRALIKRKKSERTGTQPLGVQGLTEEQRMMIRELMDAQMKTFDTTFSHFKNFRLPGVLSSGCELPESLQAPSREEAAKWSQVRKDLCSLKVSLQLRGEDGSVWNYKPPADSGGKEIFSLLPHMADMSTYMFKGIISFAKVISYFRDLPIEDQISLLKGAAFELCQLRFNTVFNAETGTWECGRLSYCLEDTAGGFQQLLLEPMLKFHYMLKKLQLHEEEYVLMQAISLFSPDRPGVLQHRVVDQLQEQFAITLKSYIECNRPQPAHRFLFLKIMAMLTELRSINAQHTQRLLRIQDIHPFATPLMQELFGITGS

tested on: hG6PD promoter; experiment: NHR-promoter luciferase screen, hG6PD promoter; format: cell-based, human; conditions: G6PD promoter reporter; co-transfected HR, without or with its ligand
Summary of the method: (§1)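 CV-1 cells were co-transfected with 50 ng NHR (homodimer or NHR/RXR heterodimer), 100 ng promoter-luciferase construct and 50 ng LacZ. Luciferase was normalized to LacZ and to a no-NHR/no-ligand control.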

Row | Molecule | Luc. act., normalized to lacZ
1 | B1 | 46.4
2 | B2 | 56.6
3 | B3 | 42.6
4 | B4 | 58.8
5 | B5 | 48.7
6 | B6 | 42.5

same assay, conditions: G6PD promoter reporter; co-transfected HR, without or with its ligand; relative to control

Row | Molecule | Normalized Luc. act., normalized to control
7 | B1 | 1.2
8 | B2 | 1.5
9 | B3 | 1.1
10 | B4 | 1.6
11 | B5 | 1.3
12 | B6 | 1.1

same assay, conditions: hG6PD promoter-luciferase, CV-1 cells, NHR +/- ligand, control = 1.00

Row | Molecule | luciferase activity normalized to lacZ activity and to a control, hG6PD
13 | B1 | 1.24
14 | B2 | 1.52
15 | B3 | 1.14
16 | B4 | 1.57
17 | B5 | 1.30
18 | B6 | 1.14

tested on: hMyoD promoter; experiment: NHR-promoter luciferase screen, hMyoD promoter; format: cell-based, human; conditions: MyoD promoter reporter; co-transfected HR, without or with its ligand
Summary of the method: as §1

Row | Molecule | Luc. act., normalized to lacZ
19 | B1 | 51.2
20 | B2 | 123.5
21 | B3 | 36.5
22 | B4 | 104.5
23 | B5 | 59.6
24 | B6 | 50.6

same assay, conditions: MyoD promoter reporter; co-transfected HR, without or with its ligand; relative to control

Row | Molecule | Normalized Luc. act., normalized to control
25 | B1 | 0.8
26 | B2 | 1.9
27 | B3 | 0.6
28 | B4 | 1.6
29 | B5 | 0.9
30 | B6 | 0.8

same assay, conditions: hMyoD promoter-luciferase, CV-1 cells, NHR +/- ligand, control = 1.00

Row | Molecule | luciferase activity normalized to lacZ activity and to a control, hMyoD
31 | B1 | 0.81
32 | B2 | 1.95
33 | B3 | 0.58
34 | B4 | 1.65
35 | B5 | 0.94
36 | B6 | 0.80

tested on: mGhrelin promoter; experiment: NHR-promoter luciferase screen, mGhrelin promoter; format: cell-based, mouse; conditions: Table 8; mGhrelin
Summary of the method: as §1

Row | Molecule | Luc. act., normalized to lacZ | Normalized Luc. act., normalized to control
37 | B1 | 52.2 | 1.0
38 | B2 | 84.4 | 1.6
39 | B3 | 65.7 | 1.3
40 | B4 | 88.8 | 1.7
41 | B5 | 56.1 | 1.1
42 | B6 | 136.2 | 2.6

same assay, conditions: Table 6d; luciferase activity relative to control (control = 1.00)

Row | Molecule | Results of assays of transcription factor (+/- ligand) with mGhrelin
43 | B1 | 1.00
44 | B2 | 1.61
45 | B3 | 1.26
46 | B4 | 1.70
47 | B5 | 1.07
48 | B6 | 2.61

tested on: mLeptin promoter; experiment: NHR-promoter luciferase screen, mLeptin promoter; format: cell-based, mouse; conditions: Table 7; mLeptin
Summary of the method: as §1

Row | Molecule | Luc. act., normalized to lacZ | Normalized Luc. act., normalized to control
49 | B1 | 2.7 | 0.9
50 | B2 | 2.7 | 0.9
51 | B3 | 2.8 | 0.9
52 | B4 | 3.6 | 1.2
53 | B5 | 2.6 | 0.9
54 | B6 | 4.1 | 1.4

same assay, conditions: Table 6d; luciferase activity relative to control (control = 1.00)

Row | Molecule | Results of assays of transcription factor (+/- ligand) with mLeptin
55 | B1 | 0.93
56 | B2 | 0.91
57 | B3 | 0.95
58 | B4 | 1.21
59 | B5 | 0.89
60 | B6 | 1.40

tested on: hMDR1 promoter; experiment: NHR-promoter luciferase screen, hMDR1 promoter; format: cell-based, human; conditions: MDR1 promoter; HR/ligand component
Summary of the method: as §1

Row | Molecule | Luc. act., normalized to lacZ | Normalized Luc. act., normalized to control
61 | B1 | 0.2 | 0.7
62 | B2 | 0.3 | 1.0
63 | B3 | 0.2 | 0.6
64 | B4 | 0.3 | 0.8
65 | B5 | 0.3 | 0.9
66 | B6 | 0.3 | 1.1

same assay, conditions: transcription factor +/- ligand; control = 1.00

Row | Molecule | hMDR1 promoter reporter activity
67 | B1 | 0.68
68 | B2 | 0.97
69 | B3 | 0.61
70 | B4 | 0.85
71 | B5 | 0.90
72 | B6 | 1.10

tested on: hPPARg2 promoter; experiment: NHR-promoter luciferase screen, hPPARg2 promoter; format: cell-based, human; conditions: PPARG2 promoter; hormone receptor with or without its ligand
Summary of the method: as §1

Row | Molecule | Luc. act., normalized to lacZ
73 | B1 | 1.3
74 | B2 | 3.4
75 | B3 | 1.8
76 | B4 | 3.0
77 | B5 | 2.5
78 | B6 | 1.8

same assay, conditions: PPARG2 promoter; hormone receptor with or without its ligand; relative to control

Row | Molecule | Normalized Luc. act., normalized to control
79 | B1 | 0.6
80 | B2 | 1.7
81 | B3 | 0.9
82 | B4 | 1.5
83 | B5 | 1.2
84 | B6 | 0.9

same assay, conditions: Table 6d; luciferase activity relative to control (control = 1.00)

Row | Molecule | Results of assays of transcription factor (+/- ligand) with hPPARg2
85 | B1 | 0.63
86 | B2 | 1.72
87 | B3 | 0.89
88 | B4 | 1.51
89 | B5 | 1.24
90 | B6 | 0.91
